Data on 94 variants can be found in the supplement of paper PMC10567573.

Sequences and labels used below:
B1: ANKRD40 (parent)
chain: SLRENDFIEIELDRQELTYQELLR
B2: OR10K2 (parent)
chain: SLARLQQLLFVIFLLLYLFTLGTN
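Further: lentivirally expressed fusions sorted by FACS into six bins by GFP to DsRed ratio, PSI derived from sequencing read proportions per bin multiplied by bin number.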

The variants in one data set derive from B1. Description: protein stability index of a GFP-peptide fusion (GPS, HEK-293T) (PSI 1-6); higher = more stable. The following applies: c terminus: a fixed tail appended.
Turning to SLRENDFIEIELDRQELTYQELLQ [R24Q], the protein stability index was 3.04.
Still for that read-out and setting: to SLRENDFIEIELDRQELTYQELLL [R24L] belongs 3.09; to SLRENRFIEIELDRQELTYQELLR [D6R], 3.14; to SLRENLFIEIELDRQELTYQELLR [D6L], 2.15.
On the same count and under the same terms, to SLRENYFIEIELDRQELTYQELLR [D6Y] belongs 1.9.
As to SLRENDFDEIELDRQELTYQELLR [I8D], the protein stability index turned out to be 4.56.
Same read-out and setting: to SLRENDFFEIELDRQELTYQELLR [I8F] belongs 2.56.
In the case of SLRENDFEEIELDRQELTYQELLR [I8E], the protein stability index worked out at 4.46.
Regarding SLRENDFREIELDRQELTYQELLR [I8R], the protein stability index turned out to be 3.89.
Still for that read-out and setting: to SLRENDFGEIELDRQELTYQELLR [I8G] belongs 3.88.
With SLRENDFIEIELDRQELTYQELAR [L23A], the protein stability index was 3.73.
On the same count and under the same terms, to SLRENDFIEIELDRQELTYQELER [L23E] belongs 3.99; to SLRENDFIEIELDRQELTYQELGR [L23G], 3.48.
Turning to SLRENDFIEIALDRQELTYQELLR [E11A], the protein stability index amounted to 3.15.
Still for that read-out and setting: to SLRENDFIEILLDRQELTYQELLR [E11L] belongs 1.94; to SLRENDFIEIPLDRQELTYQELLR [E11P], 3.75; to SLRENDFIEIILDRQELTYQELLR [E11I], 2.16.
Turning to SLRENDFIEIRLDRQELTYQELLR [E11R], the protein stability index stood at 2.44.
On to SLRENDFIEIELDRQELTEQELLR [Y19E], for which the protein stability index is 4.6.
Same read-out and setting: to SLRENDFIEIELDRQELTHQELLR [Y19H] belongs 3.71; to SLRENDFIEIELDRQELTDQELLR [Y19D], 4.59; to SLRENDFIEIELDRQELTFQELLR [Y19F], 2.31.
Still for that read-out and setting: to SLRENDFIEIELDRQELTGQELLR [Y19G] belongs 3.86; to SLRENDFIEIELDRRELTYQELLR [Q15R], 3.41; to SLRENDFIEIELDRNELTYQELLR [Q15N], 3.35.
For the variant SLRENDFIEIELDRKELTYQELLR [Q15K], the protein stability index was 3.29.
In the case of SLRENDFIEIELDCQELTYQELLR [R14C], the protein stability index is 2.09.
Take SLRENDFIEIELDLQELTYQELLR [R14L]: the protein stability index is 1.73.
Consider SLRENDFIEIELDTQELTYQELLR [R14T], for which the protein stability index came to 3.01.
Take SLRENDFIEIELDYQELTYQELLR [R14Y]: the protein stability index stood at 1.95.
Same read-out and setting: to SLRENDFIEIELDKQELTYQELLR [R14K] belongs 3.31.
Regarding SLRENDFIEIELDNQELTYQELLR [R14N], the protein stability index was 3.54.
The same measure, in the same setting: to SLRENDIIEIELDRQELTYQELLR [F7I] belongs 2.91; to SLRENDQIEIELDRQELTYQELLR [F7Q], 4.17; to SLRENDVIEIELDRQELTYQELLR [F7V], 3.59.
With SLRENDPIEIELDRQELTYQELLR [F7P], the protein stability index stood at 4.05.
On the same count and under the same terms, to SLRENDHIEIELDRQELTYQELLR [F7H] belongs 3.96; to SLRENDLIEIELDRQELTYQELLR [F7L], 3.79.

A further data set covers variants of B2. The data set is described as above. Particulars: c terminus: a fixed tail appended.
As to SLARLQQLLFVIFLLLYLFTLWTN [G22W], the protein stability index worked out at 2.11.
For the variant SLARLQQLLFVIFLLLYLFTLHTN [G22H], the protein stability index is 2.3.
Turning to SLARLQQLLFVIFLLLYLFTLKTN [G22K], the protein stability index is 2.48.
The same measure, in the same setting: to SLARLQQLLFVIFLLLYLFTLNTN [G22N] belongs 3.78; to SLARLQQLLFVIFLLLYLFTLCTN [G22C], 2.65.
Turning to SLARLQQLLFVIFLLLYLFTYGTN [L21Y], the protein stability index turned out to be 1.62.
For the variant SLARLQQLLFVIFLLLYLFTNGTN [L21N], the protein stability index is 4.16.
On the same count and under the same terms, to SLARLQQLLFVIFLLLYLFTCGTN [L21C] belongs 3.39.
Same read-out and setting: to SLARLQQLLFVIFLLLYLFTFGTN [L21F] belongs 3.52; to SLARLQQLLFVIFLLLYLFTSGTN [L21S], 2.34; to SLARLQQLLFVIFLLLYLFTIGTN [L21I], 2.08.
On the same count and under the same terms, to SLARLQQLLFVIFLLLYLFTVGTN [L21V] belongs 2.08.
For SLARLQQLLFVIFLLLYLFTTGTN [L21T], the protein stability index was found to be 3.5.
Same read-out and setting: to SLARLQQLLFVIFHLLYLFTLGTN [L14H] belongs 2.31; to SLARLQQLLFVIFILLYLFTLGTN [L14I], 2.72.
On the same count and under the same terms, to SLARLQQLLFVIFLLLYKFTLGTN [L18K] belongs 2.07; to SLARLQQLLFVIFLLLYIFTLGTN [L18I], 2.73.
Same read-out and setting: to SLARLQQLLFVIFLLLYSFTLGTN [L18S] belongs 2.25.
For the variant SLARLQQLLFVIFLLLYMFTLGTN [L18M], the protein stability index worked out at 2.1.
The same measure, in the same setting: to SLARLQQLLFVIFLLLYDFTLGTN [L18D] belongs 1.64.
Consider SLARLQQLLFVIFLLLYGFTLGTN [L18G], for which the protein stability index is 2.29.
Consider SLARLQQLLFVIFLLLYLITLGTN [F19I], for which the protein stability index is 1.51.
Take SLARLQQLLFVIFLLLYLMTLGTN [F19M]: the protein stability index came to 2.17.
Still for that read-out and setting: to SLARLQQLLFVIFLLLYLLTLGTN [F19L] belongs 2.05.
Regarding SLARLQQLLFVIFLLLWLFTLGTN [Y17W], the protein stability index was determined as 2.13.
On the same count and under the same terms, to SLARLQQLLFVIFLLLLLFTLGTN [Y17L] belongs 2.34; to SLARLQQLLFVIFLLLVLFTLGTN [Y17V], 1.57.
For SLARLQQLLFVIFLLLFLFTLGTN [Y17F], the protein stability index came to 1.68.
The same measure, in the same setting: to SLARLQQLLFVIFLLLCLFTLGTN [Y17C] belongs 2.72.
Still for that read-out and setting: to SLARLQQLLFVIFLLLILFTLGTN [Y17I] belongs 3.43; to SLARLQQLLFVIFLLLYLFTLGHN [T23H], 1.75.
In the case of SLARLQQLLFVIFLLLYLFTLGCN [T23C], the protein stability index was determined as 4.22.
On to SLARLQQLLFVIFLLLYLFTLGDN [T23D], for which the protein stability index was 1.44.
Still for that read-out and setting: to SLARLQQLLFVIFLLLYLFTLGRN [T23R] belongs 1.53.
Consider SLARLQQLLFVIFLLLYLFTLGSN [T23S], for which the protein stability index came out at 1.86.
As for SLARLQQLLFVIFLLEYLFTLGTN [L16E], the protein stability index turned out to be 3.61.
SLARLQQLLFVIFLLYYLFTLGTN [L16Y]: the protein stability index turned out to be 3.45.
Still for that read-out and setting: to SLARLQQLLFVIFLLTYLFTLGTN [L16T] belongs 3.42; to SLARLQQLLFVIFLLIYLFTLGTN [L16I], 2.15.
The same measure, in the same setting: to SLARLQQLLFVIFLLSYLFTLGTN [L16S] belongs 3.14; to SLARLQQLLFVIFLLLYLFILGTN [T20I], 2.11; to SLARLQQLLFVIFLLLYLFLLGTN [T20L], 1.5.
On the same count and under the same terms, to SLARLQQLLFVIFLLLYLFRLGTN [T20R] belongs 2.2; to SLARLQQLLFVIFLLLYLFQLGTN [T20Q], 1.45; to SLARLQQLLFVIFLLLYLFNLGTN [T20N], 3.75.
On to SLARLQQLLFVIFLLLYLFMLGTN [T20M], for which the protein stability index is 1.29.
The same measure, in the same setting: to SLARLQQLLFVIFLLLYLFFLGTN [T20F] belongs 3.51; to SLARLQQLLFVIFLTLYLFTLGTN [L15T], 2.62; to SLARLQQLLFVIFLQLYLFTLGTN [L15Q], 2.4.
On the same count and under the same terms, to SLARLQQLLFVIFLVLYLFTLGTN [L15V] belongs 1.48; to SLARLQQLLFVIFLLLYLFTLGTT [N24T], 2.4; to SLARLQQLLFVIFLLLYLFTLGTA [N24A], 2.11.
On the same count and under the same terms, to SLARLQQLLFVIFLLLYLFTLGTW [N24W] belongs 1.99.
With SLARLQQLLFVIFLLLYLFTLGTL [N24L], the protein stability index was 3.23.
SLARLQQLLFVIFLLLYLFTLGTF [N24F]: the protein stability index was 2.87.
As to SLARLQQLLFVIFLLLYLFTLGTI [N24I], the protein stability index worked out at 2.75.
